From US20260327578A1, “TRANSGLUTAMINASES AND USES THEREOF” (CURIE CO. INC., priority 2023, published 2026)
Numbering of substitutions follows the chain as printed. Names and notes keep the numbering of the source.

B1: A4: Tgase variant S2P Q50S Q74A K91H Q124L K151R K152R N282Q S284A H289I relative to SEQ ID NO: 2 (protein, UniProt P81453 77-407, looked up, variant S2P Q50S Q74A K91H Q124L K151R K152R N282Q S284A H289I)
Protein-glutamine …: DPDDRVTPPAEPLDRMPDPYRPSYGRAETVVNNYIRKWQQVYSHRDGRKSQMTEEQREWLSYGCVGVTWVNSGAYPTNRLAFASFDEDRFHNELKNGRPRSGETRAEFEGRVAKESFDEEKGFLRAREVASVMNRALENAHDESAYLDNLRRELANGNDALRNEDARSPFYSALRNTPSFKERNGGNHDPSRMKAVIYSKHFWSGQDRSSSADKRKYGDPDAFRPAPGTGLVDMSRDRNIPRSPTSPGEGFVNFDYGWFGAQTEADADKTVWTHGNHYHAPQGALGAMIVYESKFRNWSEGYSDFDRGAYVITFIPKSWNTAPDKVKQGWP
B2: S5: Tgase variant S2P Q39N Q51E relative to SEQ ID NO: 2 (protein, UniProt P81453 77-407, looked up, variant S2P Q39N Q51E)
Protein-glutamine …: DPDDRVTPPAEPLDRMPDPYRPSYGRAETVVNNYIRKWNQVYSHRDGRKQEMTEEQREWLSYGCVGVTWVNSGQYPTNRLAFASFDEDRFKNELKNGRPRSGETRAEFEGRVAKESFDEEKGFQRAREVASVMNRALENAHDESAYLDNLKKELANGNDALRNEDARSPFYSALRNTPSFKERNGGNHDPSRMKAVIYSKHFWSGQDRSSSADKRKYGDPDAFRPAPGTGLVDMSRDRNIPRSPTSPGEGFVNFDYGWFGAQTEADADKTVWTHGNHYHAPNGSLGAMHVYESKFRNWSEGYSDFDRGAYVITFIPKSWNTAPDKVKQGWP
B3: S20: Tgase variant S2P Q51A Q74T K95I Q124L K151R K152R relative to SEQ ID NO: 2 (protein, UniProt P81453 77-407, looked up, variant S2P Q51A Q74T K95I Q124L K151R K152R)
Protein-glutamine …: B2 Protein-glutamine … with N39Q, E51A, Q74T, K95I, Q124L, K151R, K152R
B4: S2: Tgase variant S2P Q74V relative to SEQ ID NO: 2 (protein, UniProt P81453 77-407, looked up, variant S2P Q74V)
Protein-glutamine …: B2 Protein-glutamine … with N39Q, E51Q, Q74V
B5: S4: Tgase variant S2P Q51P relative to SEQ ID NO: 2 (protein, UniProt P81453 77-407, looked up, variant S2P Q51P)
Protein-glutamine …: B2 Protein-glutamine … with N39Q, E51P
B6: S8: Tgase variant S2P K49T Q74F relative to SEQ ID NO: 2 (protein, UniProt P81453 77-407, looked up, variant S2P K49T Q74F)
Protein-glutamine …: B2 Protein-glutamine … with N39Q, K49T, E51Q, Q74F
B7: S17: Tgase variant S2P Q50S Q74A K91H Q124N K151R K152R relative to SEQ ID NO: 2 (protein, UniProt P81453 77-407, looked up, variant S2P Q50S Q74A K91H Q124N K151R K152R)
Protein-glutamine …: B1 Protein-glutamine … with L124N, Q282N, A284S, I289H
B8: S11: Tgase variant S2P Q124I K151R K152R relative to SEQ ID NO: 2 (protein, UniProt P81453 77-407, looked up, variant S2P Q124I K151R K152R)
Protein-glutamine …: B2 Protein-glutamine … with N39Q, E51Q, Q124I, K151R, K152R
B9: S1: Tgase variant S2P Q50H relative to SEQ ID NO: 2 (protein, UniProt P81453 77-407, looked up, variant S2P Q50H)
Protein-glutamine …: B2 Protein-glutamine … with N39Q, Q50H, E51Q
B10: S14: Tgase variant S2P Q50S Q51E Q56E relative to SEQ ID NO: 2 (protein, UniProt P81453 77-407, looked up, variant S2P Q50S Q51E Q56E)
Protein-glutamine …: B2 Protein-glutamine … with N39Q, Q50S, Q56E
B11: S3: Tgase variant S2P Q50A relative to SEQ ID NO: 2 (protein, UniProt P81453 77-407, looked up, variant S2P Q50A)
Protein-glutamine …: B2 Protein-glutamine … with N39Q, Q50A, E51Q
B12: S12: Tgase variant S2P Q124L K151R K152R relative to SEQ ID NO: 2 (protein, UniProt P81453 77-407, looked up, variant S2P Q124L K151R K152R)
Protein-glutamine …: B2 Protein-glutamine … with N39Q, E51Q, Q124L, K151R, K152R
B13: S16: Tgase variant S2P Q50S Q74A K91H Q124L K151R K152R relative to SEQ ID NO: 2 (protein, UniProt P81453 77-407, looked up, variant S2P Q50S Q74A K91H Q124L K151R K152R)
Protein-glutamine …: B1 Protein-glutamine … with Q282N, A284S, I289H
B14: S13: Tgase variant S2P Q124N K151R K152R relative to SEQ ID NO: 2 (protein, UniProt P81453 77-407, looked up, variant S2P Q124N K151R K152R)
Protein-glutamine …: B2 Protein-glutamine … with N39Q, E51Q, Q124N, K151R, K152R
B15: S18: Tgase variant S2P K49H Q50A Q74C Q124L K151R K152R relative to SEQ ID NO: 2 (protein, UniProt P81453 77-407, looked up, variant S2P K49H Q50A Q74C Q124L K151R K152R)
Protein-glutamine …: B1 Protein-glutamine … with K49H, S50A, A74C, H91K, Q282N, A284S, I289H
B16: S7: Tgase variant S2P K49T Q74M relative to SEQ ID NO: 2 (protein, UniProt P81453 77-407, looked up, variant S2P K49T Q74M)
Protein-glutamine …: B2 Protein-glutamine … with N39Q, K49T, E51Q, Q74M
B17: S19: Tgase variant S2P K49H Q50A Q74C Q124N K151R K152R relative to SEQ ID NO: 2 (protein, UniProt P81453 77-407, looked up, variant S2P K49H Q50A Q74C Q124N K151R K152R)
Protein-glutamine …: B2 Protein-glutamine … with N39Q, K49H, Q50A, E51Q, Q74C, Q124N, K151R, K152R
B18: S9: Tgase variant S2P Q51I K95I relative to SEQ ID NO: 2 (protein, UniProt P81453 77-407, looked up, variant S2P Q51I K95I)
Protein-glutamine …: B2 Protein-glutamine … with N39Q, E51I, K95I
B19: S15: Tgase variant S2P Q51P Q56M Q74A K91E relative to SEQ ID NO: 2 (protein, UniProt P81453 77-407, looked up, variant S2P Q51P Q56M Q74A K91E)
Protein-glutamine …: B2 Protein-glutamine … with N39Q, E51P, Q56M, Q74A, K91E
B20: S10: Tgase variant S2P Q124E K151R K152R relative to SEQ ID NO: 2 (protein, UniProt P81453 77-407, looked up, variant S2P Q124E K151R K152R)
Protein-glutamine …: B2 Protein-glutamine … with N39Q, E51Q, Q124E, K151R, K152R
B21: S6: Tgase variant S2P Q56M Q74S relative to SEQ ID NO: 2 (protein, UniProt P81453 77-407, looked up, variant S2P Q56M Q74S)
Protein-glutamine …: B2 Protein-glutamine … with N39Q, E51Q, Q56M, Q74S
B22: S21: Tgase variant S2P Q50T Q51A Q74M K95E Q124L K151R K152R relative to SEQ ID NO: 2 (protein, UniProt P81453 77-407, looked up, variant S2P Q50T Q51A Q74M K95E Q124L K151R K152R)
Protein-glutamine …: B2 Protein-glutamine … with N39Q, Q50T, E51A, Q74M, K95E, Q124L, K151R, K152R

test system: N,N-dimethylcasein; experiment: Productivity: total product formed after 24 hours (protein functionalization assay); type: biochemical; settings: improvement relative to wild-type Tgase (SEQ ID NO: 2); total product after 24 h
Protocol: (§1) Enzymatic “productivity” is a measure of product formation or substrate disappearance over time, at a prescribed temperature under specified reaction conditions. It is the measure both the durability and reaction yield of the enzyme variant. In this instance, productivity is defined as total product formed over 24-hours at a constant substrate concentration when the enzyme is the rate limiting factor. The time is defined as 24 hours, which represents approaching or surpassing burnout, denaturation, or self-reaction of the enzyme variant. In other words, variants with higher productivity deliver a higher product yield in 24-hours than variants with lower productivity produce in the same period of time. “Rate” refers to the initial rate for an enzymatic reaction, at a prescribed temperature under specified reaction conditions. The enzyme produces product at an initial rate that is approximately linear for a short period after the start of the reaction. When concentrations of enzyme and substrate are the same across the sample set, initial rates between enzyme variants can be compared. In this instance, the linear range for production of product occurs in one hour. Enzyme variants with faster initial rates deliver a higher product yield in one hour than variants with slower initial rates produce at the same time-period. In some cases, improvements to initial rates also deliver a more productive variant. In some cases, improvements to initial rates result in faster decay of the enzyme variant reducing overall enzymatic productivity. Productivity and rate may be assessed as described in Example 2.
(§2) Table 6 depicts variants of Streptomyces mobaraensis Tgase and improvement to productivity and/or rate relative to wild-type Tgase (SEQ ID NO. 2) as determined in Example 3. Numbering of amino acid positions is in reference to the mature S. mobaraensis Tgase sequence depicted in SEQ ID NO. 2. A “−” indicates a reduction in activity. A “+” indicates an improvement between 1.2 and 2-fold. A “++” indicates an improvement between 2 and 5-fold. A “+++” indicates an improvement greater than 5-fold.
To evaluate productivity, total product formed was measured after 24-hours of incubation, using the assay described in Example 4B. The time is defined as 24 hours which represents approaching or surpassing burnout, denaturation, or self-reaction of the enzyme variant.
(§3) Protein functionalization by Tgase variants was determined by the fluorogenic labeling of casein using monodansylcadaverine (e.g., a commercially available kit such as the Transglutaminase Fluorogenic Activity Assay Kit, T036, Zedira, Germany). Tgase activity was monitored by measuring fluorescence (excitation wavelength 332 nm; emission wavelength 500 nm) using a BioTek Synergy H1 microplate reader. Transglutaminase-catalyzed covalent coupling (crosslinking) of monodansylcadaverine with N,N-dimethylcasein produces a product that causes a shift in intensity and wavelength of fluorescence of the dansyl group now linked to the casein. The relative transglutaminase activity is shown by increase of fluorescence intensity over time. Enzyme variant loading was optimized based on expression levels, ensuring enzyme was the rate limiting factor. Briefly, cell-free reactions (set up as described in Example 2A) were first diluted 10-fold using phosphate buffer, pH 7.4, and a 5 microliter aliquot was analyzed.

| Molecule | Productivity |
| --- | --- |
| B1 | + (an improvement between 1.2 and 2-fold) |

test system: N,N-dimethylcasein; experiment: Rate of product formation over 60 minutes (protein functionalization assay); type: biochemical; parameters: key: −: a reduction in activity; +: an improvement between 1.2 and 2-fold; ++: an improvement between 2 and 5-fold; +++: an improvement greater than 5-fold; settings: improvement relative to wild-type Tgase (SEQ ID NO: 2); initial rate over 60 min
Protocol: as §1, §2
Rate was assessed by measuring the rate of product formation over 60 minutes of incubation using a kinetic method to take scans every 60 seconds to determine product formation, using reaction conditions as described in Example 4B. The enzyme produces product at an initial rate that is approximately linear for the first one hour of the reaction. The concentrations of enzyme and substrate are the same across the sample set for each enzyme variant. Enzyme variants with faster initial rates deliver a higher product yield in one hour than variants with slower initial rates produce at the same time-period.
as §3

| Molecule | Rate |
| --- | --- |
| B1 | − |

test system: N,N-dimethylcasein; experiment: Chemostability: residual Tgase activity after 24 hour incubation at 20-30 °C, normalized to wild-type; type: biochemical; settings: improvement relative to wild-type mature Tgase (SEQ ID NO: 2); residual activity after 24 h at 20-30 °C in cell-free extract
Protocol: Table 5 depicts variants of Streptomyces mobaraensis Tgase and improvement to stability relative to wild-type mature Tgase (SEQ ID NO. 2) as determined in Example 3. Numbering of amino acid positions is in reference to the mature S. mobaraensis Tgase sequence depicted in SEQ ID NO. 2. A “+” indicates an improvement between 1.2 and 2-fold. A “++” indicates an improvement greater than 2-fold.
To evaluate chemostability, Tgase samples in cell-free extract were assayed for activity, using the assay described in Example 4B, immediately after expression and again following a 24 hour incubation at 20-30° C. Mature Tgase variant residual activity was normalized to the residual activity of the wild-type and results are depicted in Table 5.
as §3

| Molecule | Stability |
| --- | --- |
| B2 | + (an improvement between 1.2 and 2-fold) |
| B3 | + (an improvement between 1.2 and 2-fold) |
| B4 | ++ (an improvement greater than 2-fold) |
| B5 | + (an improvement between 1.2 and 2-fold) |
| B6 | + (an improvement between 1.2 and 2-fold) |
| B7 | + (an improvement between 1.2 and 2-fold) |
| B8 | ++ (an improvement greater than 2-fold) |
| B9 | ++ (an improvement greater than 2-fold) |
| B10 | ++ (an improvement greater than 2-fold) |
| B11 | ++ (an improvement greater than 2-fold) |
| B12 | ++ (an improvement greater than 2-fold) |
| B13 | ++ (an improvement greater than 2-fold) |
| B14 | + (an improvement between 1.2 and 2-fold) |
| B15 | + (an improvement between 1.2 and 2-fold) |
| B16 | + (an improvement between 1.2 and 2-fold) |
| B17 | + (an improvement between 1.2 and 2-fold) |
| B18 | + (an improvement between 1.2 and 2-fold) |
| B19 | ++ (an improvement greater than 2-fold) |
| B20 | ++ (an improvement greater than 2-fold) |
| B21 | ++ (an improvement greater than 2-fold) |
| B22 | + (an improvement between 1.2 and 2-fold) |
